From article PMC3511536, “The Interleukin 3 Gene (IL3) Contributes to Human Brain Volume Variation by Regulating Proliferation and Survival of Neural Progenitors”

B1: IL3 promoter rs31480 T-allele (dsDNA)
DNA 1: TGCACATATAAGGCGGGAGGTTGTTGCCAACGCTTCAGAGC
DNA 2: GCTCTGAAGCGTTGGCAACAACCTCCCGCCTTATATGTGCA
B2: IL3 promoter rs31480 C-allele (dsDNA)
DNA 1: TGCACATATAAGGCGGGAGGCTGTTGCCAACGCTTCAGAGC
DNA 2: GCTCTGAAGCGTTGGCAACAGCCTCCCGCCTTATATGTGCA

Target: SP1 (Homo sapiens, UniProt P08047 1-785)
Assay: EMSA; 10 mM Tris-HCl pH 7.5, 1 mM MgCl2, 0.5 mM EDTA, 0.5 mM DTT, 50 mM NaCl, 50 ug/ml poly(dI-dC), 4% glycerol, 35 fmol probe, 20 min, room temperature; 6% native PAGE
Details: protein: recombinant; label: 3' biotin; blunt

Chain of SP1 (P08047 whole entry): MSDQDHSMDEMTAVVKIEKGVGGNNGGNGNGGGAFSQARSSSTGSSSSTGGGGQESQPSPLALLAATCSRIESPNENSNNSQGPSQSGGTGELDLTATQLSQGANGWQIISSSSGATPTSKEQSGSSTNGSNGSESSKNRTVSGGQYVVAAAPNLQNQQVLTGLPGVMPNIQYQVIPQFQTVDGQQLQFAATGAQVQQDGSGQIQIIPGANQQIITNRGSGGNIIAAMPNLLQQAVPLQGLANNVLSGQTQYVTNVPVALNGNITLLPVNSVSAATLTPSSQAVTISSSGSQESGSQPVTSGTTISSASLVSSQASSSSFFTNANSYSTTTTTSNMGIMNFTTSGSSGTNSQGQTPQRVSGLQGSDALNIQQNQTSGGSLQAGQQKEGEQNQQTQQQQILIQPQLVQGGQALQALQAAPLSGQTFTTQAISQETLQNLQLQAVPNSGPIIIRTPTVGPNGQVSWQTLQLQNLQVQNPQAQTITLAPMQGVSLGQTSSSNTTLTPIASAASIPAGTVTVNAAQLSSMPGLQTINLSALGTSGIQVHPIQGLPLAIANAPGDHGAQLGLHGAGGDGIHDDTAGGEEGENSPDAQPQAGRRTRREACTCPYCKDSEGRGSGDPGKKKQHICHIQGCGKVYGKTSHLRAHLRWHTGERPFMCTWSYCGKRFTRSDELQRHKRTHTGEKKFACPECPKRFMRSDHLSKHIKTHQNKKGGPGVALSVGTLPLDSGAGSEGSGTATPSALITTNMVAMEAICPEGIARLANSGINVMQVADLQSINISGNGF

Binder | binding result
B1 | binds
B2 | no binding
